The source of these data is patent US12723255B2, “Herbicide tolerance genes and methods of use thereof” (priority 2014, dated 2026).

As usually defined, the Km is the concentration of substrate that gives half-maximal velocity.

Where two headings read alike, the source gives them in different places.

Data set [1] is classed as biochemical. The settings on record: substrate quizalofop-P. The method, then: To analyze these engineered proteins for activity in higher temperatures, the in vitro enzyme assay in Example 1 was modified to specify pre-heating all of the assay components to the desired temperature for 5 minutes before combining the components and then maintaining the reaction at the desired temperature for the duration of the reaction. To normalize the assay measurements, quizalofop-P was used as the substrate for the reaction and enzyme activity was normalized based on the 25° C. readings. Using these parameters, the temperature at which the enzyme activity was half of maximum (T1/2) was calculated. The T1/2 for MON-HT55 was calculated to be 29° C., and the T1/2 for wild-type RdpA was calculated to be 38° C. (FIG. 2A).
Enzyme activity over a range of temperatures was analyzed in-depth for MON-HT1, MON-HT2, MON-HT7, and MON-HT8. These assays were conducted as described above. Quizalofop-P or 2,4-D was used as the substrate for these reactions and activity was normalized based on the activity of the wild-type enzyme at 25° C. The activity curves obtained are presented in FIG. 2B (with quizalofop-P as the substrate) and FIG. 2C (with 2,4-D as the substrate). Using quizalofop-P as the substrate, MON-HT55 was the most temperature sensitive, with a T1/2 of 29° C. […] MON-HTI was slightly less temperature sensitive, with a T1/2 about 1° C. higher than the wild-type enzyme.

Data set [2] can be described thus: enzyme activity assay at 23° C. with purified enzyme. The settings on record: percentage of wild-type RdpA, set at 100%. It is filed as biochemical. As to the method:
The enzyme activity of MON-HT protein variants with triclopyr, fluroxypyr, MCPA, MCPB, mecoprop, as substrates was determined using the enzyme activity assay conducted at 23° C. with purified enzyme. The activity was recorded as the maximum activity as a percentage of the wild-type RdpA enzyme's activity, which was set at 100%. […] The enzymatic activity with mecoprop as a substrate was reduced for each of the MON-HT1, MON-HT13, MON-HT15, and MON-HT17 variants compared to the wild-type RdpA enzyme. An unexpected result was that enzymatic activity with MCPA as a substrate was roughly 6-fold greater for MON-HT1, and approximately 10-fold greater for MON-HT13, MON-HT15, and MON-HT17 compared to the wild-type RdpA enzyme.

Data set [3] is described as follows: kinetic analysis, non-endpoint assay at 23° C. The data set is classed as biochemical. The source says:
For the fifth screen, recombinant protein for each of the eleven engineered proteins was produced and purified for an in-depth biochemical analysis. This biochemical analysis included: (1) kinetic analysis (Vmax and Km), (2) activity assays over a range of temperatures, (3) protein melting analysis, (4) activity on additional AOPP herbicides substrates, and (5) mass spectrometry analysis on peptides to confirm identity. The biochemical analyses were also done with purified recombinant wild-type protein and MON-HT55 protein for comparison. For the kinetic analysis, a non-endpoint assay was conducted at 23° C. with either quizalofop-P or 2,4-D as substrate. The recombinant proteins for these assays were produced in bacteria and purified using a 6-His tag fused at the C-terminal end of the protein. Results of the kinetic analysis with either quizalofop-P or 2,4-D as substrate are presented for ten of the engineered proteins, wild-type protein, and MON-HT55 protein in Table 7 (standard error is shown in parenthetical). Vmax is expressed as specific activity, umol herbicide product mg enzyme-1 min-1; Km expressed as mM herbicide substrate. […] The differentiation of the protein kinetics for MON-HTI and MON-HT7 were surprising because there are only four amino acid differences between MON-HT1 and MON-HT7. Specifically, MON-HT1 has the following amino acids at the indicated position: 182; F105; T112; and V273, and MON-HT7 has the following amino acids at the indicated position: L82; V105; S112; and A273.
Kinetic analysis using a non-endpoint assay was conducted at 23° C. with either quizalofop-P or 2,4-D as substrate, as detailed above for purified protein of the wild-type enzyme, MON-HT1, MON-HT13, MON-HT15, and MON-HT17.

Data set [4] is classed as physicochemical. The method, then: A protein melting analysis was also conducted. For the protein melting determinations, purified enzyme was added to 96-well microtiter plates in standard storage buffer (30 mM Tris pH7.5, 150 mM NaCl) with or without 50 uM Fe2+ and 1.0 mM aKG. Protein unfolding was then detected with SYPRO® orange protein gel stain (Invitrogen™ catalog #S6651, Life Technologies, Grand Island, NY) in a BioRad CFX96™ Real time PCR machine (BioRad, Hercules, CA) with readings taken between 10° C. to 95° C. in 0.5° C. steps. […] In contrast, 50 uM Fe2+ and 1.0 mM aKG had little effect on the stability of any of the engineered proteins. MON-HT55, MON-HT3, MON-HT4, MON-HT6, and MON-HT10 had melting temperatures in the range of 41° C. to 48° C., which is below the melting temperature of the wild-type enzyme. MON-HT1, MON-HT2, MON-HT5, MON-HT7, MON-HT8, and MON-HT9 had melting temperatures between 58° C. and 67° C., which is 8° C. to 17° C. higher than the wild-type enzyme. For MON-HT7 and MON-HT1, the difference in melting point was 11° C. in buffer without Fe2+ and aKG and 8° C. in buffer with Fe2+ and aKG. This was surprising since there are only four amino acid differences between the two enzymes.
A protein melting analysis was conducted as detailed above. The melting temperatures of MON-HT13, MON-HT15, and MON-HT17 was similar to the melting temperature of MON-HT1 with T1/2 in buffer in the range of 55-58° C., and with T1/2 in buffer plus Fe2+ and aKG in the range of 60-62° C.

A short description of data set [5]: enzyme activity assay at 23° C. with purified enzyme. It is filed as biochemical. The settings on record: wild-type set at 100%. As to the method: The enzyme activity of MON-HT protein variants with haloxyfop, fenoxaprop, fluazifop, and dichlorprop as substrates was determined using the enzyme activity assay conducted at 23° C. with purified enzyme. The activity was recorded as the maximum activity as a percentage of the wild-type enzyme's activity, which was set at 100%.

B1: Wild-type RdpA: wild-type RdpA enzyme from Sphingobium herbicidovorans, SEQ ID NO:60 (protein)
chain: MHAALSPLSQRFERIAVQPLTGVLGAEITGVDLREPLDDSTWNEILDAFHTYQVIYFPGQAITNEQHIAFSRRFGPVDPVPLLKSIEGYPEVQMIRREANESGRVIGDDWHTDSTFLDAPPAAVVMRAIDVPEHGGDTGFLSMYTAWETLSPTMQATIEGLNVVHSATRVFGSLYQAQNRRFSNTSVKVMDVDAGDRETVHPLVVTHPGSGRKGLYVNQVYCQRIEGMTDAESKPLLQFLYEHATRFDFTCRVRWKKDQVLVWDNLCTMHRAVPDYAGKFRYLTRTTVGGVRPAR
modifications: Sphingobium herbicidovorans
Turning to B1, in data set [1], the “activity of the wild-type enzyme at 46° C. and 47° C.” value is “completely inactive”; the “inactivation of the wild-type enzyme at 42° C. and 41° C.” value came to 90 % inactive. Moreover, in data set [2], the “MCPA Km” value turned out to be 100%, the “MCPA Vmax” value is 100%, the “Mecoprop Km” value is 100% and the “Mecoprop Vmax” value is given as 100%. Moreover, in data set [3] (23° C., purified His-tagged protein, standard error in parenthetical), the “Vmax Quizalofop” value was 1.38 (−0.06) umol herbicide product mg enzyme-1 min-1. The Michaelis constant (Km) in data set [3] (23° C., purified His-tagged protein, standard error in parenthetical, read-out: Km Quizalofop) was 270 µM. Besides, in data set [3] (Table 10 series, unit as defined), the “Vmax 2,4-D” value was 0.25 (0.01) umol herbicide product mg enzyme-1 min-1. For the same molecule, the Km in data set [3] (Table 10 series, unit as defined, read-out: Km 2,4-D) was determined as 130 µM. Further, in data set [3] (Table 10 series, 23° C., unit as defined), the “Vmax Quizalofop” value is 2.76 (0.11) umol herbicide product mg enzyme-1 min-1. The Michaelis-Menten constant (Km) in data set [3] (Table 10 series, 23° C., unit as defined, read-out: Km Quizalofop) is 90 µM. Moreover, in data set [3] (standard error in parenthetical, NDB = activity not robust enough for kinetic characterization), the “Vmax 2,4-D” value is recorded as 0.10 (−0.01) umol herbicide product mg enzyme-1 min-1. For the same molecule, the Michaelis constant (Km) in data set [3] (standard error in parenthetical, NDB = activity not robust enough for kinetic characterization, read-out: Km 2,4-D) amounted to 30 µM. Further, in data set [4] (Table 11 series), the “Melting temp, Buffer” value worked out at 43 °C; the “Melting temp, Buffer plus Fe2+ and aKG” value was 53 °C. Further, in data set [4] (buffer), the “T1/2, temperature where 50% of the protein was unfolded, Buffer plus Fe2+ and aKG” value was found to be 50 °C. Besides, the “T1/2, temperature where 50% of the protein was unfolded, Buffer” value in data set [4] (buffer, pH 7.5) was 42 °C. Also, in data set [5] (purified enzyme), the “maximum activity as a percentage of the wild-type enzyme's activity, Haloxyfop” value is given as 100%. In data set [5], the “maximum activity as a percentage of the wild-type enzyme's activity, Dichlorprop” value was found to be 100%; the “maximum activity as a percentage of the wild-type enzyme's activity, Fenoxaprop” value worked out at 100%; the “maximum activity as a percentage of the wild-type enzyme's activity, Fluazifop” value amounted to 100%.
